From patent US20170210813A1 (Regeneron, published 2017)

Tests used:
hPDGFRb.mmh [1] = biological target: T1, hPDGFRb.mmh (human, UniProt P09619 33-531); assay: blocking ELISA, biot-hPDGFRb.mmh to coated PDGF-BB
T1 construct: Soluble monomeric construct; also called soluble human PDGFR-beta.mmh

hPDGFRb.mmh [2] = biological target: T1, hPDGFRb.mmh; assay: Octet BLI cross-competition, 25 C; hPDGFRb.mmh on anti-Penta-His tips pre-saturated with mAb-1 H4H3094P (row 5)
Experimental: (§1) A cross-competition assay was conducted to assess the ability of select antibodies to compete with one another for binding to human PDGFR-beta. […] Each PDGFR-beta.mmh-coated sensor tip was saturated for 5 min with a first anti-PDGFR-beta antibody (Mab #1; 50 μg/mL). Next, each sensor tip was saturated with a solution of a second anti-PDGFR-beta antibody (Mab #2). The real time response of Mab #2 binding to PDGR-beta.mmh pre-complexed with Mab #1 was then monitored. All assays were performed at 25° C. with a flow rate of 1000 rpm on an Octet RED384 biosensor in Octet HBST buffer according to manufacturer's instructions (ForteBio Corp., Menlo Park, Calif.). Results are illustrated in FIG. 2.

[3] = biological target: T2, full length human PDGFR-beta on HEK293 cells (human, UniProt P09619 33-1106); assay: cell-based or functional assay
[4] = biological target: T2, full length human PDGFR-beta on HEK293 …; assay: cell-based or functional assay; remark: listed apart in the source
hPDGFRb.mmh [5] = biological target: T1, hPDGFRb.mmh; assay: Octet BLI cross-competition, 25 C; hPDGFRb.mmh on anti-Penta-His tips pre-saturated with mAb-1 Control I (row 1)
Experimental: as §1

hPDGFRb.mmh [6] = biological target: T1, hPDGFRb.mmh; assay: Octet BLI cross-competition, 25 C; hPDGFRb.mmh on anti-Penta-His tips pre-saturated with mAb-1 H4H3305N (row 8)
Experimental: as §1

[7] = biological target: T3, Macaca fascicularis PDGFRb.mmh (Macaca fascicularis); assay: SPR, mAb captured, 25 C
T3 construct: Soluble monomeric construct; also called mfPDGFRb.mmh
T3 chain: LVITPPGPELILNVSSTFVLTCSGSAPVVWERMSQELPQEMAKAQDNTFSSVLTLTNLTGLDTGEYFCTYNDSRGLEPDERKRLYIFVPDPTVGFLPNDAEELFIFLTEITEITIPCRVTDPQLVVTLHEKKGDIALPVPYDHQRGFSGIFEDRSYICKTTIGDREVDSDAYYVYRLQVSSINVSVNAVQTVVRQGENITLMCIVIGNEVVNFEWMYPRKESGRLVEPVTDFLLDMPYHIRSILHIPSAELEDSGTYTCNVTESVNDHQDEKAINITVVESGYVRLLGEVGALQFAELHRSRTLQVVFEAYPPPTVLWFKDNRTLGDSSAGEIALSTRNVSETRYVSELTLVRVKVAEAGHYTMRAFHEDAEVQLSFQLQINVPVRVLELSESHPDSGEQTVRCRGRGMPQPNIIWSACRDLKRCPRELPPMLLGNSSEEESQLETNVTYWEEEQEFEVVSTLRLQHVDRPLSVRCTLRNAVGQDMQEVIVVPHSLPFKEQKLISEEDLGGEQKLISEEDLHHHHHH
Experimental: (§2) Antibodies, expressed as either mouse Fc (prefix H1M; H2M) or human Fc (prefix H4H), were captured on their respective anti-Fc sensor surfaces (Mab capture format). […] Kinetic association (kₐ) and dissociation (kd) rate constants were determined by processing and fitting the data to a 1:1 binding model using Scrubber 2.0 curve fitting software.

hPDGFRb.mmh [8] = biological target: T1, hPDGFRb.mmh; assay: SPR, mAb captured, 25 C
Experimental: as §2

human PDGFRb.hFc [9] = biological target: T4, human PDGFRb.hFc (human); assay: SPR, mAb captured, 25 C
T4 construct: Soluble dimeric construct with human Fc; also called hPDGFRb.hFc
Experimental: as §2

[10] = biological target: T3, Macaca fascicularis PDGFRb.mmh; assay: SPR, mAb captured, 37 C
Experimental: as §2

hPDGFRb.mmh [11] = biological target: T1, hPDGFRb.mmh; assay: SPR, mAb captured, 37 C
Experimental: as §2

human PDGFRb.hFc [12] = biological target: T4, human PDGFRb.hFc; assay: SPR, mAb captured, 37 C
Experimental: as §2

hPDGFRb.mmh [13] = biological target: T1, hPDGFRb.mmh; assay: Octet BLI cross-competition, 25 C; hPDGFRb.mmh on anti-Penta-His tips pre-saturated with mAb-1 H4H3310N (row 9)
Experimental: as §1

hPDGFRb.mmh [14] = biological target: T1, hPDGFRb.mmh; assay: Octet BLI cross-competition, 25 C; hPDGFRb.mmh on anti-Penta-His tips pre-saturated with mAb-1 H4H3374N (row 3)
Experimental: as §1

hPDGFRb.mmh [15] = biological target: T1, hPDGFRb.mmh; assay: Octet BLI cross-competition, 25 C; hPDGFRb.mmh on anti-Penta-His tips pre-saturated with mAb-1 H4H3099S (row 6)
Experimental: as §1

hPDGFRb.mmh [16] = biological target: T1, hPDGFRb.mmh; assay: Octet BLI cross-competition, 25 C; hPDGFRb.mmh on anti-Penta-His tips pre-saturated with mAb-1 H4H3365N (row 2)
Experimental: as §1

hPDGFRb.mmh [17] = biological target: T1, hPDGFRb.mmh; assay: Octet BLI cross-competition, 25 C; hPDGFRb.mmh on anti-Penta-His tips pre-saturated with mAb-1 H4H3107S (row 7)
Experimental: as §1

hPDGFRb.mmh [18] = biological target: T1, hPDGFRb.mmh; assay: Octet BLI cross-competition, 25 C; hPDGFRb.mmh on anti-Penta-His tips pre-saturated with mAb-1 H4H3103S (row 4)
Experimental: as §1

T2 sequence (P09619 33-1106 limits assumed): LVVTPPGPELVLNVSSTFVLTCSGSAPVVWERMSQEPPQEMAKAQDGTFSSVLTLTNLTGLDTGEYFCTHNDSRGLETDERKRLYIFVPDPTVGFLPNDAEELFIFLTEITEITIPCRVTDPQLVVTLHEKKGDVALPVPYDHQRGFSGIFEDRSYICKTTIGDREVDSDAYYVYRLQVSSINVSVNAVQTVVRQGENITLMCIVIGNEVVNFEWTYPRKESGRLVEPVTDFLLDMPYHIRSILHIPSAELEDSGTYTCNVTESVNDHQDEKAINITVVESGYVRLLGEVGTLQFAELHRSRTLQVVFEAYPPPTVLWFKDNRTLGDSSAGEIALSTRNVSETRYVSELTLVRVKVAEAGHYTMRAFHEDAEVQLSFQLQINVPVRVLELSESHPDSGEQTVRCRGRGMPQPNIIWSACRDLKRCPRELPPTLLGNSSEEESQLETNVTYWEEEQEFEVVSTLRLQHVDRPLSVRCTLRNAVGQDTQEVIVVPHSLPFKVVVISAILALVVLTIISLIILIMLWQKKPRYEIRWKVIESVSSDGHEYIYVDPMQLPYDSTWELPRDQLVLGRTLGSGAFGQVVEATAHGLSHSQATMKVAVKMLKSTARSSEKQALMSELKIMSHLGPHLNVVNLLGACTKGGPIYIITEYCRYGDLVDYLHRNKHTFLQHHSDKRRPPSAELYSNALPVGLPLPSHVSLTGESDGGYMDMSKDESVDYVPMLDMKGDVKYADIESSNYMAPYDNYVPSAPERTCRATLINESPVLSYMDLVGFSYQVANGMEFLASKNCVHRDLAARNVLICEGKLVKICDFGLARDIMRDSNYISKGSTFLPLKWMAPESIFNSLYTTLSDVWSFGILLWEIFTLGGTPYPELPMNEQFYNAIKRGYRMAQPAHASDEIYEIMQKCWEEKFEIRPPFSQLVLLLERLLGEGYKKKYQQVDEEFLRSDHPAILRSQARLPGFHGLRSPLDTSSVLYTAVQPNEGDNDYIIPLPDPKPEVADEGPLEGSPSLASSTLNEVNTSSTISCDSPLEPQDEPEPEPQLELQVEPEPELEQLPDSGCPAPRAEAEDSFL

B1: H4H3103S (antibody, human IgG4, V domains shown)
VH: EVQLLQSGGGLVQPGGSLRLSCAASGFTFSHYWMSWVRQGPGKGLEWVATIKKDGSESYYVDSVRGRFTISRDNAKNSLYLQMNSLRTEDTAVYYCARDIVTPNVGYYFGMDVWGQGTTVTVSS
VL: DIQMTQSPSTLSASVGDRVTITCRASQSISSWLSWYQQKPGKAPKLLIYMASTLESGVPSRFSGSGSGTDFTLTITSLQPDDFATYYCQQSNSYSRTFGHGTKLEIK
notes: human IgG4 Fc (H4H prefix)
In the case of B1, the “% Maximum Blocking” value (hPDGFRb.mmh [1]) is reported as 90%, the IC50 (hPDGFRb.mmh [1]) is reported as 0.24 nM and the “Response of mAb-2 Binding to hPDGFRβ.mmh Pre-Complexed with mAb-1 (nm)” value (“Response of mAb-2 Binding” below) (hPDGFRb.mmh [2]) is reported as 0 nm. For the same binder, the “IC50, blocking PDGF-BB (250 pM) activation, SRE-luciferase” value [3] was 2e-10 M, the “IC50, blocking PDGF-DD (400 pM) activation, SRE-luciferase” value [3] was 2.6e-10 M and the “Percent Internalization (Relative to Control I)” value [4] was 87%. For the same binder, the “Response of mAb-2 Binding” value (hPDGFRb.mmh [5]) was -0.01 nm, the “Response of mAb-2 Binding” value (hPDGFRb.mmh [6]) was 0.26 nm and the Kd [7] was 3.24 nM. It also gave a koff [7] of 0.00116 s⁻¹, a kon [7] of 359000 M⁻¹ s⁻¹ and a t1/2 [7] of 10 min. It also gave a Kd (hPDGFRb.mmh [8]) of 3.13 nM, a koff (hPDGFRb.mmh [8]) of 0.00105 s⁻¹ and a kon (hPDGFRb.mmh [8]) of 335000 M⁻¹ s⁻¹. It also gave a t1/2 (hPDGFRb.mmh [8]) of 11 min, a Kd (human PDGFRb.hFc [9]) of 0.264 nM and a koff (human PDGFRb.hFc [9]) of 0.000164 s⁻¹. For the same binder, the kon (human PDGFRb.hFc [9]) was 621000 M⁻¹ s⁻¹, the t1/2 (human PDGFRb.hFc [9]) was 70 min and the Kd [10] was 10.2 nM. The koff [10] was 0.00556 s⁻¹, the kon [10] was 544000 M⁻¹ s⁻¹ and the t1/2 [10] was 2 min. It also gave a Kd (hPDGFRb.mmh [11]) of 10.1 nM, a koff (hPDGFRb.mmh [11]) of 0.00497 s⁻¹ and a kon (hPDGFRb.mmh [11]) of 492000 M⁻¹ s⁻¹. For the same binder, the t1/2 (hPDGFRb.mmh [11]) was 2 min, the Kd (human PDGFRb.hFc [12]) was 0.405 nM and the koff (human PDGFRb.hFc [12]) was 0.000306 s⁻¹. For the same binder, the kon (human PDGFRb.hFc [12]) was 757000 M⁻¹ s⁻¹, the t1/2 (human PDGFRb.hFc [12]) was 38 min and the “Response of mAb-2 Binding” value (hPDGFRb.mmh [13]) was 0.25 nm. The “Response of mAb-2 Binding” value (hPDGFRb.mmh [14]) was 0.01 nm, the “Response of mAb-2 Binding” value (hPDGFRb.mmh [15]) was 0.26 nm and the “Response of mAb-2 Binding” value (hPDGFRb.mmh [16]) was 0.02 nm. For the same binder, the “Response of mAb-2 Binding” value (hPDGFRb.mmh [17]) was 0.24 nm.

B2: H4H3107S (antibody, human IgG4, V domains shown)
VH: QVQLVESGGGFVQPGGSLRLSCAASGFTFTNYAMSWVRQAPGKGLEWVSAISGVGGSTYYADSVKGRFTISRDTSKNMLYLQMNSLRAEDTAVYYCAKAPHWGPFGSWGQGTLVTVSS
VL: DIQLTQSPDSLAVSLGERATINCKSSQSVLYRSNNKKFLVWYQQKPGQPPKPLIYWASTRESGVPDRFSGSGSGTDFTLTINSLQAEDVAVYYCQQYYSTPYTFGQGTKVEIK
notes: human IgG4 Fc (H4H prefix)
B2 was tested, and the “% Maximum Blocking” value (hPDGFRb.mmh [1]) was 83%, the IC50 (hPDGFRb.mmh [1]) was 0.066 nM and the “Response of mAb-2 Binding” value (hPDGFRb.mmh [2]) was 0.36 nm. The “Response of mAb-2 Binding” value (hPDGFRb.mmh [18]) was 0.33 nm, the “IC50, blocking PDGF-BB (250 pM) activation, SRE-luciferase” value [3] was 1.7e-10 M and the “IC50, blocking PDGF-DD (400 pM) activation, SRE-luciferase” value [3] was 2.4e-10 M. The “Percent Internalization (Relative to Control I)” value [4] was 92%, the “Response of mAb-2 Binding” value (hPDGFRb.mmh [5]) was 0.28 nm and the “Response of mAb-2 Binding” value (hPDGFRb.mmh [6]) was 0.02 nm. For the same binder, the Kd [7] was 0.836 nM, the koff [7] was 0.000198 s⁻¹ and the kon [7] was 236000 M⁻¹ s⁻¹. It also gave a t1/2 [7] of 58 min, a Kd (hPDGFRb.mmh [8]) of 0.863 nM and a koff (hPDGFRb.mmh [8]) of 0.000191 s⁻¹. The kon (hPDGFRb.mmh [8]) was 221000 M⁻¹ s⁻¹, the t1/2 (hPDGFRb.mmh [8]) was 61 min and the Kd (human PDGFRb.hFc [9]) was 0.0801 nM. It also gave a koff (human PDGFRb.hFc [9]) of 4.24e-05 s⁻¹, a kon (human PDGFRb.hFc [9]) of 529000 M⁻¹ s⁻¹ and a t1/2 (human PDGFRb.hFc [9]) of 272 min. It also gave a Kd [10] of 1.38 nM, a koff [10] of 0.000942 s⁻¹ and a kon [10] of 683000 M⁻¹ s⁻¹. For the same binder, the t1/2 [10] was 12 min, the Kd (hPDGFRb.mmh [11]) was 1.45 nM and the koff (hPDGFRb.mmh [11]) was 0.000879 s⁻¹. It also gave a kon (hPDGFRb.mmh [11]) of 605000 M⁻¹ s⁻¹, a t1/2 (hPDGFRb.mmh [11]) of 13 min and a Kd (human PDGFRb.hFc [12]) of 0.165 nM. The koff (human PDGFRb.hFc [12]) was 0.000115 s⁻¹, the kon (human PDGFRb.hFc [12]) was 695000 M⁻¹ s⁻¹ and the t1/2 (human PDGFRb.hFc [12]) was 101 min. For the same binder, the “Response of mAb-2 Binding” value (hPDGFRb.mmh [13]) was 0.02 nm, the “Response of mAb-2 Binding” value (hPDGFRb.mmh [14]) was 0.31 nm and the “Response of mAb-2 Binding” value (hPDGFRb.mmh [15]) was 0.01 nm. The “Response of mAb-2 Binding” value (hPDGFRb.mmh [16]) was 0.32 nm.
